In US20230365662A1:
Values joined by “and” are separate entries in the source; they are usually repeats but may differ in a detail not shown here. Identical values can stand only once.

Target: HRgpA-6H (Porphyromonas gingivalis) (UniProt P28784)
Assay: ELISA, Fab FASEBA supernatant on coated HRgpA-6H (0.0625 ug/ml)

UniProt P28784, sequence (P28784 228-991 limits assumed): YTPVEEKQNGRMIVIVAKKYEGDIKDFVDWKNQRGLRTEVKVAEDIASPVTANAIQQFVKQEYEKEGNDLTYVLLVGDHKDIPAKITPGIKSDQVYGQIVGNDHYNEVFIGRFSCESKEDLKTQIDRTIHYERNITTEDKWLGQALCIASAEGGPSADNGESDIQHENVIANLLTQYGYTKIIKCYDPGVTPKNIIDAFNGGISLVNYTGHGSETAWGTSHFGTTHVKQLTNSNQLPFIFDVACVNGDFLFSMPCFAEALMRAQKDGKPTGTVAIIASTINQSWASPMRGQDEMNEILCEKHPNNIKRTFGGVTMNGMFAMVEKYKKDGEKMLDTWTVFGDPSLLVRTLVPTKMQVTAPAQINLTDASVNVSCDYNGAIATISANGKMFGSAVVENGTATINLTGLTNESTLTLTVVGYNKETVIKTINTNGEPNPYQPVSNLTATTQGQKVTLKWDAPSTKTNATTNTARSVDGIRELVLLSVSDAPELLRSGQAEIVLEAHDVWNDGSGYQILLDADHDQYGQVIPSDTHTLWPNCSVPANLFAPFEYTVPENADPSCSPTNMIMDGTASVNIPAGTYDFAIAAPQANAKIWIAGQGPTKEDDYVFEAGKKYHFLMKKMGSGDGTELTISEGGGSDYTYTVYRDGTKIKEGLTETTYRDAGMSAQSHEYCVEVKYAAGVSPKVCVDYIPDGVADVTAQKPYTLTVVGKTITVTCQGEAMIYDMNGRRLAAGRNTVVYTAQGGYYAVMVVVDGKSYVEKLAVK

Binder	OD450nm	Ratio OD(Variant)/OD(WT)
KB001 parental mouse Fab VH variant S65G (Fab, V domains shown) VH: EVQLKQSGPGLVAPSQSLSITCTVSGFSLSIYSVHWVRQPPGKGLEWLGMIWGGGSSDYNSALKGRLSISKDNSKSQVFLKMNSLQTDDTAMYYCARNGNFYAMDYWGQGTSVTVSS VL: QIVLTQSPAIMSASLGERVTMTCTASSSVSSSFLHWYQQKPGSSPQLWIYSTSNLASGVPARFSGSGSGTSYSLTISSMEAEDAATYYCHQYHHSPYIYTFGGGTKLEIK	0.825	0.998
KB001 parental mouse Fab VH variant G99S (Fab, V domains shown) VH: EVQLKQSGPGLVAPSQSLSITCTVSGFSLSIYSVHWVRQPPGKGLEWLGMIWGGGSSDYNSALKSRLSISKDNSKSQVFLKMNSLQTDDTAMYYCARNSNFYAMDYWGQGTSVTVSS VL: QIVLTQSPAIMSASLGERVTMTCTASSSVSSSFLHWYQQKPGSSPQLWIYSTSNLASGVPARFSGSGSGTSYSLTISSMEAEDAATYYCHQYHHSPYIYTFGGGTKLEIK	0.769 and 0.739 and 0.77	0.965 and 0.927 and 0.966
KB001 parental mouse Fab VH variant N100G (Fab, V domains shown) VH: EVQLKQSGPGLVAPSQSLSITCTVSGFSLSIYSVHWVRQPPGKGLEWLGMIWGGGSSDYNSALKSRLSISKDNSKSQVFLKMNSLQTDDTAMYYCARNGGFYAMDYWGQGTSVTVSS VL: QIVLTQSPAIMSASLGERVTMTCTASSSVSSSFLHWYQQKPGSSPQLWIYSTSNLASGVPARFSGSGSGTSYSLTISSMEAEDAATYYCHQYHHSPYIYTFGGGTKLEIK	0.769 and 0.814	0.908 and 0.961
KB001 parental mouse Fab VH variant N100P (Fab, V domains shown) VH: EVQLKQSGPGLVAPSQSLSITCTVSGFSLSIYSVHWVRQPPGKGLEWLGMIWGGGSSDYNSALKSRLSISKDNSKSQVFLKMNSLQTDDTAMYYCARNGPFYAMDYWGQGTSVTVSS VL: QIVLTQSPAIMSASLGERVTMTCTASSSVSSSFLHWYQQKPGSSPQLWIYSTSNLASGVPARFSGSGSGTSYSLTISSMEAEDAATYYCHQYHHSPYIYTFGGGTKLEIK	0.757	0.894
KB001 parental mouse Fab VH variant N100R (Fab, V domains shown) VH: EVQLKQSGPGLVAPSQSLSITCTVSGFSLSIYSVHWVRQPPGKGLEWLGMIWGGGSSDYNSALKSRLSISKDNSKSQVFLKMNSLQTDDTAMYYCARNGRFYAMDYWGQGTSVTVSS VL: QIVLTQSPAIMSASLGERVTMTCTASSSVSSSFLHWYQQKPGSSPQLWIYSTSNLASGVPARFSGSGSGTSYSLTISSMEAEDAATYYCHQYHHSPYIYTFGGGTKLEIK	0.788	0.93
KB001 parental mouse Fab VH variant G99Y (Fab, V domains shown) VH: EVQLKQSGPGLVAPSQSLSITCTVSGFSLSIYSVHWVRQPPGKGLEWLGMIWGGGSSDYNSALKSRLSISKDNSKSQVFLKMNSLQTDDTAMYYCARNYNFYAMDYWGQGTSVTVSS VL: QIVLTQSPAIMSASLGERVTMTCTASSSVSSSFLHWYQQKPGSSPQLWIYSTSNLASGVPARFSGSGSGTSYSLTISSMEAEDAATYYCHQYHHSPYIYTFGGGTKLEIK	0.769	0.965
KB001 parental mouse Fab VH variant N100E (Fab, V domains shown) VH: EVQLKQSGPGLVAPSQSLSITCTVSGFSLSIYSVHWVRQPPGKGLEWLGMIWGGGSSDYNSALKSRLSISKDNSKSQVFLKMNSLQTDDTAMYYCARNGEFYAMDYWGQGTSVTVSS VL: QIVLTQSPAIMSASLGERVTMTCTASSSVSSSFLHWYQQKPGSSPQLWIYSTSNLASGVPARFSGSGSGTSYSLTISSMEAEDAATYYCHQYHHSPYIYTFGGGTKLEIK	0.823	0.972
KB001 parental mouse Fab VH variant G99A (Fab, V domains shown) VH: EVQLKQSGPGLVAPSQSLSITCTVSGFSLSIYSVHWVRQPPGKGLEWLGMIWGGGSSDYNSALKSRLSISKDNSKSQVFLKMNSLQTDDTAMYYCARNANFYAMDYWGQGTSVTVSS VL: QIVLTQSPAIMSASLGERVTMTCTASSSVSSSFLHWYQQKPGSSPQLWIYSTSNLASGVPARFSGSGSGTSYSLTISSMEAEDAATYYCHQYHHSPYIYTFGGGTKLEIK	0.74	0.928
KB001 parental mouse Fab VH variant N100S (Fab, V domains shown) VH: EVQLKQSGPGLVAPSQSLSITCTVSGFSLSIYSVHWVRQPPGKGLEWLGMIWGGGSSDYNSALKSRLSISKDNSKSQVFLKMNSLQTDDTAMYYCARNGSFYAMDYWGQGTSVTVSS VL: QIVLTQSPAIMSASLGERVTMTCTASSSVSSSFLHWYQQKPGSSPQLWIYSTSNLASGVPARFSGSGSGTSYSLTISSMEAEDAATYYCHQYHHSPYIYTFGGGTKLEIK	0.799 and 0.844 and 0.805	0.943 and 0.996 and 0.95
KB001 parental mouse Fab VH variant N100K (Fab, V domains shown) VH: EVQLKQSGPGLVAPSQSLSITCTVSGFSLSIYSVHWVRQPPGKGLEWLGMIWGGGSSDYNSALKSRLSISKDNSKSQVFLKMNSLQTDDTAMYYCARNGKFYAMDYWGQGTSVTVSS VL: QIVLTQSPAIMSASLGERVTMTCTASSSVSSSFLHWYQQKPGSSPQLWIYSTSNLASGVPARFSGSGSGTSYSLTISSMEAEDAATYYCHQYHHSPYIYTFGGGTKLEIK	0.801 and 0.791	0.946 and 0.934
KB001 parental mouse Fab VH variant G99F (Fab, V domains shown) VH: EVQLKQSGPGLVAPSQSLSITCTVSGFSLSIYSVHWVRQPPGKGLEWLGMIWGGGSSDYNSALKSRLSISKDNSKSQVFLKMNSLQTDDTAMYYCARNFNFYAMDYWGQGTSVTVSS VL: QIVLTQSPAIMSASLGERVTMTCTASSSVSSSFLHWYQQKPGSSPQLWIYSTSNLASGVPARFSGSGSGTSYSLTISSMEAEDAATYYCHQYHHSPYIYTFGGGTKLEIK	0.771	0.967
KB001 parental mouse Fab VH variant N100L (Fab, V domains shown) VH: EVQLKQSGPGLVAPSQSLSITCTVSGFSLSIYSVHWVRQPPGKGLEWLGMIWGGGSSDYNSALKSRLSISKDNSKSQVFLKMNSLQTDDTAMYYCARNGLFYAMDYWGQGTSVTVSS VL: QIVLTQSPAIMSASLGERVTMTCTASSSVSSSFLHWYQQKPGSSPQLWIYSTSNLASGVPARFSGSGSGTSYSLTISSMEAEDAATYYCHQYHHSPYIYTFGGGTKLEIK	0.817 and 0.736 and 0.789	0.965 and 0.869 and 0.932
KB001 parental mouse Fab VH variant N100A (Fab, V domains shown) VH: EVQLKQSGPGLVAPSQSLSITCTVSGFSLSIYSVHWVRQPPGKGLEWLGMIWGGGSSDYNSALKSRLSISKDNSKSQVFLKMNSLQTDDTAMYYCARNGAFYAMDYWGQGTSVTVSS VL: QIVLTQSPAIMSASLGERVTMTCTASSSVSSSFLHWYQQKPGSSPQLWIYSTSNLASGVPARFSGSGSGTSYSLTISSMEAEDAATYYCHQYHHSPYIYTFGGGTKLEIK	0.809	0.955
KB001 parental mouse Fab VH variant S65T (Fab, V domains shown) VH: EVQLKQSGPGLVAPSQSLSITCTVSGFSLSIYSVHWVRQPPGKGLEWLGMIWGGGSSDYNSALKTRLSISKDNSKSQVFLKMNSLQTDDTAMYYCARNGNFYAMDYWGQGTSVTVSS VL: QIVLTQSPAIMSASLGERVTMTCTASSSVSSSFLHWYQQKPGSSPQLWIYSTSNLASGVPARFSGSGSGTSYSLTISSMEAEDAATYYCHQYHHSPYIYTFGGGTKLEIK	0.759	0.918
KB001 parental mouse Fab VH variant G99C (Fab, V domains shown) VH: EVQLKQSGPGLVAPSQSLSITCTVSGFSLSIYSVHWVRQPPGKGLEWLGMIWGGGSSDYNSALKSRLSISKDNSKSQVFLKMNSLQTDDTAMYYCARNCNFYAMDYWGQGTSVTVSS VL: QIVLTQSPAIMSASLGERVTMTCTASSSVSSSFLHWYQQKPGSSPQLWIYSTSNLASGVPARFSGSGSGTSYSLTISSMEAEDAATYYCHQYHHSPYIYTFGGGTKLEIK	0.776	0.974
KB001 parental mouse Fab VH variant N100C (Fab, V domains shown) VH: EVQLKQSGPGLVAPSQSLSITCTVSGFSLSIYSVHWVRQPPGKGLEWLGMIWGGGSSDYNSALKSRLSISKDNSKSQVFLKMNSLQTDDTAMYYCARNGCFYAMDYWGQGTSVTVSS VL: QIVLTQSPAIMSASLGERVTMTCTASSSVSSSFLHWYQQKPGSSPQLWIYSTSNLASGVPARFSGSGSGTSYSLTISSMEAEDAATYYCHQYHHSPYIYTFGGGTKLEIK	0.688	0.812
KB001 parental mouse Fab VH variant G99N (Fab, V domains shown) VH: EVQLKQSGPGLVAPSQSLSITCTVSGFSLSIYSVHWVRQPPGKGLEWLGMIWGGGSSDYNSALKSRLSISKDNSKSQVFLKMNSLQTDDTAMYYCARNNNFYAMDYWGQGTSVTVSS VL: QIVLTQSPAIMSASLGERVTMTCTASSSVSSSFLHWYQQKPGSSPQLWIYSTSNLASGVPARFSGSGSGTSYSLTISSMEAEDAATYYCHQYHHSPYIYTFGGGTKLEIK	0.639 and 0.698	0.802 and 0.876
KB001 parental mouse Fab VH variant N100F (Fab, V domains shown) VH: EVQLKQSGPGLVAPSQSLSITCTVSGFSLSIYSVHWVRQPPGKGLEWLGMIWGGGSSDYNSALKSRLSISKDNSKSQVFLKMNSLQTDDTAMYYCARNGFFYAMDYWGQGTSVTVSS VL: QIVLTQSPAIMSASLGERVTMTCTASSSVSSSFLHWYQQKPGSSPQLWIYSTSNLASGVPARFSGSGSGTSYSLTISSMEAEDAATYYCHQYHHSPYIYTFGGGTKLEIK	0.779	0.92
KB001 parental mouse Fab VH variant N100I (Fab, V domains shown) VH: EVQLKQSGPGLVAPSQSLSITCTVSGFSLSIYSVHWVRQPPGKGLEWLGMIWGGGSSDYNSALKSRLSISKDNSKSQVFLKMNSLQTDDTAMYYCARNGIFYAMDYWGQGTSVTVSS VL: QIVLTQSPAIMSASLGERVTMTCTASSSVSSSFLHWYQQKPGSSPQLWIYSTSNLASGVPARFSGSGSGTSYSLTISSMEAEDAATYYCHQYHHSPYIYTFGGGTKLEIK	0.796 and 0.833	0.94 and 0.983
KB001 parental mouse Fab VH variant N100T (Fab, V domains shown) VH: EVQLKQSGPGLVAPSQSLSITCTVSGFSLSIYSVHWVRQPPGKGLEWLGMIWGGGSSDYNSALKSRLSISKDNSKSQVFLKMNSLQTDDTAMYYCARNGTFYAMDYWGQGTSVTVSS VL: QIVLTQSPAIMSASLGERVTMTCTASSSVSSSFLHWYQQKPGSSPQLWIYSTSNLASGVPARFSGSGSGTSYSLTISSMEAEDAATYYCHQYHHSPYIYTFGGGTKLEIK	0.756 and 0.783	0.893 and 0.924
